How the values were obtained:
[1] = tested on: cultured endothelial cells; details: cited from earlier work
[2] = tested on: tumor induced angiogenesis; details: systemic therapy; cited from earlier work
HUVECs [3] = test: Localization of endostatin into cells and nuclei (cytosol/nuclei extract, immunoprecipitation, Western blot); type: cell-based, human; details: 100 ug/ml recombinant endostatin, 30 minutes; FIG. 4
Description: 3 T-75 of HUVECs grown at regular growth condition (about 95% confluent) were treated with 100 ug/ml recombinant endostatin for 30 minutes and rinsed with warm 1XPBS and then trypsinized. The control cells from 3 T-75 were the HUVECs treated with the same concentration of endostatin for 1 second. The trypsinized cells were then washed with cold PBS twice. About 40 μl of cell pellet was obtained from all three T-75 flasks. The cytosol extract and nuclei extract was obtained using a nuclei extraction kit (Pierce Company, Rockford, Ill.). The rabbit polyclonal antibodies against human endostatin (Cytimmune Sciences, College Station, Md.) were used to immunoprecipite endostatin protein present in the extract. The immunoprecipited elution was analyzed on Western blot probed with either the same polyclonal antibodies or the mAb 96-2. […] (FIG. 4).

Live HUVECs cells = test: Staining of live endothelial cells with Alexa-labeled endostatin (fluorescence microscopy); type: cell-based, human; details: 8 ug/ml, 5, 15, 30 and 60 minutes; FIG. 6
Description: Live HUVECs cells were treated with 8 ug/mI Alexa-labeled endostatin for 5 minutes, 15 minutes, 30 minutes and 60 minutes, land washed with M-200 medium and fixed in 3.7% formaldehyde for 5 minutes and cold methanol for 5 minutes. Alexa-labeled endostatin can be visualized under the fluorescent microscope.

HUVECs [4] = test: Staining of fixed endothelial cells with Alexa-labeled endostatin; type: cell-based, human; details: HUVECs grown at 5 ng/ml VEGF, 40 μg/μl, 30 mins, FIG. 7
Description: HUVECs grown at 5 ng/ml VEGF were fixed in 3.7% formaldehyde for 5 mins. and cold methanol for 5 mins. and then stained with […] Alexa-labeled endostatin for 30 mins.

Molecule | inhibition of endothelial proliferation and angiogenesis [1] | suppression of tumor induced angiogenesis [2] | localization into cell and nuclei (HUVECs [3]) | staining of live cells (Live HUVECs cells) | staining of fixed cells (HUVECs [4])
endostatin: antiangiogenic fragment of a most C-terminal non-collagenous region of a collagen protein (SEQ ID NO: 1) (protein) HSHRDFQPVLHLVALNSPLSGGMRGIRGADFQCFQQARAVGLAGTFRAFLSSRLQDLYSIVRRADRAAVPIVNLKDELLFPSWEALFSGSEGPLKPGARIFSFDGKDVLRHPTWPQKSVWHGSDPNGRRLTESYCETWRTEAPSATGQASSLLGGRLLGQSAASCHHAYIVLCIENSFMTASK | potent and specific inhibitor | nearly complete suppression | able to localize into HUVEC cell and nuclei |  | 
Alexa-labeled endostatin: endostatin labeled with Alexa dye, visualized under the fluorescent microscope (conjugate, UniProt P39060 1572-1754, looked up, Endostatin Alexa dye label, endostatin labeled with Alexa dye, visualized under the fluorescent microscope) Endostatin: HSHRDFQPVLHLVALNSPLSGGMRGIRGADFQCFQQARAVGLAGTFRAFLSSRLQDLYSIVRRADRAAVPIVNLKDELLFPSWEALFSGSEGPLKPGARIFSFDGKDVLRHPTWPQKSVWHGSDPNGRRLTESYCETWRTEAPSATGQASSLLGGRLLGQSAASCHHAYIVLCIENSFMTASK |  |  |  | stains the cytosol and nuclei even as early as at the 5 minute time point | stained not only the cytoskeleton network, but also stained the nuclei

From US20020086007A1, “Angiogenesis-inhibiting peptides and proteins and methods of use” (priority 2000, published 2002)
